Experimental data from a protein production outcome set (Wang et al. 2014).

Test: label from the status in PepcDB records

Sequence	protein production
MITKFPPQWQEKLDQVAFTHLTPIQEQAFQPIVDGKNFLGISPTGTGKTLAYVFPNLLALTPKKSQQLLILAPNTELAGQIFEVTKDWAQPLGLTAQLFISGTSQKRQIERLKKGPEILIGTPGRIFELIKLKKIKMMSVNTIVLDEYDELLGDSQYDFVQKISHYVPRDHQMVYMSATNKVDQTSLAPNTFCIDLSEQTNDAIQHFYLMVDKRERTDLLRKFTNIPHFRALVFFNSLSDLGATEERLQYNGAAAVSLASDINVKFRKTILEKFKSHQLSLLLATDLVARGIDIDNLDYVIHFDVARDKENYTHRAGRTGRMGKSGIVITFVSHPEDLKKLKKFAKVSEISLKNQQLHFIN	failed
MITLNAWYVTWTELYKKKTVKMTTIYKNHSYYNSRVKNSIGKMYLQDIKTYHVQKFLNDLIDSGLAHGTVSNIRFMLSDMFDKAVLSEYIRKNPCIGVEMPKEVKKERLEHHHHHH	failed
MITNQRIARLNAWGAHGFTATGVVLAFLATIALFNNEPKACLLWLGAALIVDGVDGSLARKVNTTSVLPHFDGSVLDLVIDYLTYVFIPALFIYRYIPVPDYTLLLSVSVILVSSLFCFCNVDMKSKDNYFQGFPAAWNVVALCLYILSPAPWLTFITIIALALLTMTRMKFLHPFRVRRFMPLNIAVTTVWLLASALLIINHPHNGPLVMGLWLAMSAYFLGICIWRTSLEWLGRLKA	failed
MITRNAPRHALLGLILAGSLGTFVALPAVADNAAPAEQGQTTPALGSNLQTLKELDGKAPARRALNIQTWNTAEGARVLFVESRELPMFDMRLTFAAGSSQDQKSPGIALLTNAMLNEGVKGKDVNAIAQGFEGLGADFSNGSYRDMAVTSLRSLSAADKRDPALKLFSEVVGKPTFPADSLARIKNQLIASFKTQKQNPGAIASKELFNHLYGDHPYAHPSEGDAKSINAITLAQLKAFHAKGYAAGNAVIALVGDLSRDEAQAVAAQVSASLPKGPALAKVADPVEPKAGTTHIEFASNQTHLMLAQLGIDRNDPDYAALTVGNSVLGGGGFGSRLMTEVREKRGLTYGVSSGFTAMQVAGPFMIGLQTRAEMSENTLKLVQDIVRDFLANGPTQKEIDDVKRELTGSFPLTAASNSAIVGQLGAIGFYNLPLTYLEDYMAAAQSVTVEQVKAAMSKHLSADKMVIVTVGPTVEQKPLPAPTDKPTRQPVGVPEH	failed
MITSIARQSIILKCLRQKSVLVSNYELYYTAGLAKKCFGIAVDADMEPKQLLEELQKHIDKVSPADEQEKYLIHLLGNYEPDDTHDEQTVELFHMGETEEHIWQVSIT	not failed
MITSLPDNYSPQRQIPIKPDITFVHVRLAHFIAMGAGIGLIRYMPGTAGTIAAFPFYRFLDSIIEPVSLLLIIDVFFIMGIWACAVTGRALNSPDHSGMVWDEIVAFMLVLFFTPDHWTWQLAAFFLFRFFDIVKPAPIGYLDARLKGGLGVMLDDLLAAFYTLLCLAGWKSMVLFESYF	failed
MITVSIVSHGQSTLVEQLLADLVRLDMSMVTEVLVTLNIPEDISSKPGDYPYPVRILRNTAARGFGANHNAAFRQAEGEWFCVMNPDIRLINNPFPILIEEGAYDSAGVIAPMVVTPSGMIEDSVRCFPVLTSLAAKLFGHGDGRYLFAAGDEAFAADWVAGMFMLFRTEDFRAVGGFDEGFFLYYEDVDICARLWKSGRSVLACPKASVIHDARRSSRRNLRYMKWHALSLIRYFWKHWGRLPQTPEQLEHHHHHH	not failed
MIVLALDVYEGERAIKIAKSVKDYISMIKVNWPLILGSGVDIIRRLKEETGVEIIADLKLADIPNTNRLIARKVFGAGADYVIVHTFVGRDSVMAVKELGEIIMVVEMSHPGALEFINPLTDRFIEVANEIEPFGVIAPGTRPERIGYIRDRLKEGIKILAPGIGAQGGKAKDAVKAGADYIIVGRAIYNAPNPREAAKAIYDEIRGV	not failed
MIVPGGFPAPVTGSAVAASPPLPTVRLLSLDAHGRVLDWINWQDAACLYARDAVSWTLGEPCMQIHGGVSRLTGERSVLELHPIIAARGHARSRALDPTPTLTNTALFARDSQLCMYCGQHFSRPHLTRDHVMPVSKGGRDSWENVVTACFQCNSRKANRTPQQAHMPLLAVPYRPSWIEHLILSNRNILSDQMAFLRAQLPKRSKLSLLEHHHHHH	failed
MIVTLLAVGAAAAVGAVARYMLDQYVQYRSPGLFPLGTWLINVTGSFVLGLLVGLGARHGLPEQFVPIAGVGFCGAYTTFSTFSYELVHLREKGQVRKSLLYGASSLTAGLLAAAAGLAVESF	failed
MIYFIRKKKWLKQLEKGEAMKYAILIGDGMADYPIEKLGNRTILQAARTPAMDSIAARGRAGLAKTVPDSFPPGSDVANMSILGYDPATYYSGRAPLEAASMGVALAADDVAFRCNLITTEHGMIKDYSAGHISSDEAEILIDTLDYELSTENIRFYPGISYRHLIVAGNNLGAETECTPPHDITGEKIDKYLPRGKDGEFFSELIEASKVVLELHPVNLKRVEEGKNPANSIWVWGQGYAPKFTAFMKLYGKKGAVISAVDLLKGIGIYAGLDVIEVHGATGYLDTNYEGKVRAAIEALKTRDLVFVHVEAPDEAGHEGSIEKKLKAVEDFDSRIVAPILEYAENSDEPFTILVLPDHPTPISVKTHTRDPIPFAIYRTDKPETDNVEAFDEESVKNGSMGLVKASDLIGILIKSLEHHHHHH	not failed
MIYFTGDTHFADPRVLRIDRRPFPDMASHDVTLIRNWNEIVDAQDDIWHLGDFMSFRGGDCDQLLSMLNGRKHLIIGNNDPSTTTEATGWASVQHYSEMTLDDHLLILCHYPFRTWNKMGRKSINLHGHSHGRLKPLPRQYDVGVDAQRLRPVSLQTLLSTKPES	failed
MIYLFTGNMGTGKTSRVVSMILNNEDGLFKMKLEDGTEVDRPLYFCHIDGLDKRQFKAHELTEEQIMSAPLRDVIPEGAVLIVDEAHYTYPVRAAGRPVPPYIQELTELRHHGHTVILMTQHPSQLDIFVRNLVSKHVHLERKAIGMKQYYWYKCVTSLDNPAGVSGVEVASWKPPKEAFKYYKSASQHQ	not failed
MIYLHAIDPIAFSLGPVKVHWYGLMYLAGFGAAWCLGRQRIQAGRLLGVNIDGFSDLLFYAMMGVVLGGRVGYMLFYAFHDFLQEPLLLFRVWEGGMSFHGGLIGVLLAVAWWSRRQRMHMFDVVDFCAPLVPVGLGFGRLGNFIGGELWGKLTHNGWGVIFPRAPLSDVPAGQLAMQDVINFVQIQEHYAAGLLGHYARHPSQLYEAFLEGLVMFIVLWLFSRKPRPRYAVSGLFALLYGVFRFLVEFVRMPDNGVYVAFGWLTRGQILSLPLIVIGLFLFWLSCRSPVLQPVPAPEVAK	failed
MIYLQNFITTTIQLNIYLILVIGLLYVIIHYYRNKGVNAFLDIYLNYIPVLTHEFGHVLFNKLAGGKAKDLVIVTSPRERKVTSQQGYAITQSKGYLGQFITTIGGYLMPPLMFLTGLVSIHYQYPSIFITIYLFIFIYYLFITSRKLSPLIVIILISSLLYLVFKQDHQWFIYDIVTLSYHFILGVLLGEILQSSWTIFRLTFQRPKPSWDGSALTKVTRVPTFIFSLVWILFNLYTVYLLIKYTIL	failed
MIYMDVYMNSYFPHNLDTENSIIDLSKWQELADLIVDIFGADCGAIIKFTGHSFTTMLSSRNEASFLHQGTEWSSDSKSFCRTIIKTGKPLYIANAVEDEYWFDAPPVVNGPVRSYCGVPIFSPDGSIYGTICAIDTKSTRYEDALTKLLLHLSKLITSDLKIAEKAEQHRLMALTDQTTGLLNRRGLNVLSEQKFKDAKRNQDHIGVLYLDIDNLKIINDNFGHLAGDKCIKLLATILKKMVRQSDLIARIGGDEFTVLALINSENTNELDHLSMRIREVYQNEIKDNAELNMSNISIGQHLVSYDSNASLKEMLAKADSLMYQEKIDKS	failed
MIYQVDGKTIVLVLEQGEDIVEAVTDIAREQNGKFGTVSGIGACSSAELNFYNLETQTYEKKLIDEPLELIGLMGNISHIDEQPFAHLHATFGTNQYETLSGHLTKAVVSATAEIIITMTNLDINRKHNETIGLNLLDLLEHHHHHH	not failed
MIYRILIVISIFMISFSGFGQTDYFKLGKEYYNNGEYEKAAATYSEVIKKEENLPKVYETYLSTLYKLKNYTEAEKIIKKMVKVGSPENYTYRIDYALFYKQQNLTDKAEKEFSAFVSDIQKNSTAVDISGAYLQKLGEYTWAKQLYLQARKNFDRYAYCFELSSIYNRLGQTENMFDELLNYLSVNPASLEEVQNTFQNELDTDEKFALFETKVYDRINKDPNDIVYNQLLLWLNLQRKNFTKAFIQAKAIDKRNRQTGTTVLEVGNIALENKDYDAAGACFQYVSDNFKESFNYSIARRLLIQTREEQIKNTFPVDKQKIVGLISDYNQLLKENGRTAYTLESLRNMALLNAFYLDKRDTAVVILKSLIENPYTDNRLRGKAKIDLGDIYLLTGEPWESTLLYSQVEKDFKEDQLGHEAKLRNAELYYYKGEFVLAQEQLDVLKLATTREISNDAIQLSVFITENSGLDSTTDALKDYSAIQLLLFQRKYDEALQAANALLKQYPHHELTDDVYWLQATILRQTGKPTEALEMLKKISTGYADDLLGDDALFTSAQIFDYDLKNTEKAMQLYQDFLIQYTNSVYVTEARKRFRILRGDKI	failed
MIYYLIGVALFIFMLEQLVPGWKLPKVSTWVARVIFLNIVQVSIALLAGITWNKWMMGHSLLHTSDALPPLLAGFAAYFVNTFVTYWWHRARHANDTLWRLFHQLHHAPQRIEVFTSFYKHPTEMVFNSLLGSFVAYVVMGISIEAGAYYIMFAALGEMFYHSNLRTPHVLGYLFQRPEMHRIHHQRDRHECNYSDFPIWDMLFGTYENPRRIDEPQGFAGDKEQQFVDMLLFRDVHSLPGKTQPAPVLVKPDVR	failed
MKAAEKYAKDVVAGKILVCKWIMLLAQRHLDDLAVSKRKDFPYKFDPAKAEKVAKFLQLLPHTKGKWGGKKQLIKLEPWQLFSVCVPFGWVRKKDGTRRYRTILVFVPRKNGKSIIGGGVGLYMFVADGEFGAEVYSGATTEKQAWEVFRPAKLMVERTDDLREHYGVDVNASNMVVLADGSRFEPVIGKPGDGSSPSCSVVDEYHEHQDSTLYDTMETGMGAREQPIMLVITTAGSSIGGPCHQLIRDSERMLEGVIDRPDLWPALYTIDQGDDWTSEIALRKANPNFGISVAEDFLLARQRDAMQSATKQATFRTKHLNEWVGAKNAWLNMLRWKEAPVRKSLAELEGRSCYGSLDLASKIDIAANLLIFPPHGDDPFWHIHARYYLPEARVLEELDSNTARYREFDALGLLTLTDGEVTDFEVIKEDMREFAGRFDIRAYAYDPWQATQLAQEMDAEGLPMVELRQTVQNLSEPMKEVEALVLQRKLAHGDCPVLTWMASNVVAKLDVKDNIYPNKERPENKIDGMVSLITGCAVAIKLGIDDSGHFDDFLASPIVVG	failed
MKAAPARSAAYDNPYAKRLFLIIDSLPQMQRALAMTLSSFGANTVEYASKASDALAKMAKYEFDVVLCDYDLGNGYDGLYLFEEIRERNLLKQSCVFMIVTGERRAQRVISAAELAPDDYLLKPFTGEVLRDRLERAMRKREAFRLVDENILRHDYLSAIETCGRKIEENGEFALDFMRLKGSLALKINDFDTARDAYMQVLRLRPATWAKMGLAKSLAGLKSHDEARLLFEAVLADNNQVMEAYDWLARLYRGNHDLGRAQHTLQTAADMSPVVFRRQQQLAQVAVLNHDLAAAEAACQQTLDIAKYTWHRSPTHYAALLRVQLARGDNGNAVRTLANLKHDYRYNEEGEWLAGVMDSQLQAKNGNADKARELLEAAGERFKQLAPKLDQESQLEYARACYQQGRDGQGNAVMEYLVRNHHDDEDMLEHFGDMFEEIGLSQAGRQLIAQNVKSVLELNNQAVREAQSGQFDAAIERFVKALDEMPQNVQIMLNLINAVLAYVSQNGWHESHMRRAYELLGKVRDTAPTNNKFQKILQSWRLLVDKMDKPQWAL	failed
MKAERPDTRKLKALKRGHIAEYRAALCLMLKGYRIVAMRYRTRLGEIDIIARRGDLVACVEVKARVSLEDAVFAVTDTAQRRIRAASDLWLSRQGDFHRLSVRYDIVAVTPWRWPRHLPDAF	failed
